Assay [1] has as its target T1, MMOR (Methylosinus sporium, UniProt Q27RN2, Y93A).
T1 construct: gene mmoC; full-length reductase (39 kDa), recombinant in E. coli BL21(DE3) from pET30a(+); ferredoxin domain = residues 1-98
The assay can be described thus: UV-visible spectrum of purified protein, cofactor content. Conditions: FAD as purified, calibrated for [2Fe-2S] absorption; FAD/NADH-binding domain; stoichiometry, not an affinity; extra FAD said to be non-specific.

Assay [2] deals with T2, MMOR (Methylosinus sporium, UniProt Q27RN2, Y95A).
T2 construct: gene mmoC; full-length reductase (39 kDa), recombinant in E. coli BL21(DE3) from pET30a(+); ferredoxin domain = residues 1-98
T2 sequence (Q27RN2 entry or part of it Y95A): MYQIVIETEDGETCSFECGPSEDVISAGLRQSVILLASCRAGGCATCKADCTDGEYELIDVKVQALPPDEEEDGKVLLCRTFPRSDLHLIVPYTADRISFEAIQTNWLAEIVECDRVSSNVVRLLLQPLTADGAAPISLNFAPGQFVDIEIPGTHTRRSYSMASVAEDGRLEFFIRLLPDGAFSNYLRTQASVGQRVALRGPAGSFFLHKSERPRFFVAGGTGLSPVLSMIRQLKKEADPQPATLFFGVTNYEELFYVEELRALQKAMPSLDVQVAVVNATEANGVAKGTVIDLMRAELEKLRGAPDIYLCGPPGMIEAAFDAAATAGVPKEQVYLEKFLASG
The assay is described as above. Conditions: FAD as purified, calibrated for [2Fe-2S] absorption; FAD/NADH-binding domain.

Assay [3] has as its target Hydroxylase (MMOH) of soluble methane monooxygenase (sMMO) from Methylosinus sporium 5 (Methylosinus sporium 5). Nature of the assay: other fluorescence titration; tryptophan quenching (Ex 282 nm, Em 336 nm); MMOH 0.32 uM in the cuvette, MMORs added from 0 to 110 equivalents; 25 mM MOPS, 50 mM NaCl, 1 mM DTT, pH 6.5; fitted with a 1:2 binding model.
The target of assay [4] is T3, sMMO (MMOH + MMOB + MMOR) (Methylosinus sporium, UniProt Q27RN2, Y93A).
T3 construct: gene mmoC; recombinant MMOB and MMOR (39 kDa) from E. coli; with Methane monooxygenase component A alpha chain; Methane monooxygenase component A beta chain; Methane monooxygenase component A gamma chain; Methane monooxygenase regulatory protein B
T3 sequence (Q27RN2 entry or part of it Y93A): as the sequence (Q27RN2 entry or part of it Y95A) above, with Y93A, A95Y counted along it
T3 sequence (Q27RN4 entry or part of it, stated change not applied, further chain): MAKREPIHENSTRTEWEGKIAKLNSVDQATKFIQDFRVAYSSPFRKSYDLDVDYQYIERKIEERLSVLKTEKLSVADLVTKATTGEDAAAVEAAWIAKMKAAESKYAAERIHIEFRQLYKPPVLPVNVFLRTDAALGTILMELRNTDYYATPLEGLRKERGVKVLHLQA
T3 sequence (Q27RN6 entry or part of it, stated change not applied, further chain): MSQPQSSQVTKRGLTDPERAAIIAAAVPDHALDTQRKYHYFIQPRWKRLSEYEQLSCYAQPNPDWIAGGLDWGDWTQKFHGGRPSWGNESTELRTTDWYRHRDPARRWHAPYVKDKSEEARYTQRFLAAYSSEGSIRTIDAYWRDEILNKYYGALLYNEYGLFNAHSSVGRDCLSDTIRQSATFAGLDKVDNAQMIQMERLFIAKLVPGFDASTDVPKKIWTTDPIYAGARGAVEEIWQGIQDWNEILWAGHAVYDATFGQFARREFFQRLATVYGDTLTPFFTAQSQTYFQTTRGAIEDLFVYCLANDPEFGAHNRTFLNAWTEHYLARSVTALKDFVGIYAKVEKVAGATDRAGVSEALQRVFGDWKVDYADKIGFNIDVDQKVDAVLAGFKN
Nature of the assay: NADH consumption at […] nm. It counts as biochemical. Conditions: turnover; propylene and O2 as co-substrates; 1 uM MMOH, 2 equiv. MMOB, 0.5 or 1.0 equiv. MMOR; 25 mM phosphate, 50 mM NaCl, pH 7.0.

Counter-ions that a name gives are not always drawn.

T1 sequence (Q27RN2 entry or part of it Y93A): as the sequence (Q27RN2 entry or part of it Y95A) above, with Y93A, A95Y counted along it

Consider `Cc1cc2nc3c(=O)[nH]c(=O)nc-3n(C[C@H](O)[C@H](O)[C@H](O)COP(=O)(O)OP(=O)(O)OC[C@H]3O[C@@H](n4cnc5c(N)ncnc54)[C@H](O)[C@@H]3O)c2cc1C` [flavin adenine dinucleotide], for which the FAD/protein in assay [1] amounted to 2.0 FAD/protein. In assay [2], the “FADs per purified reductase” value is “two irons and two FADs per purified reductase”.

On to MMOR-Y95A (enzyme), for which, in assay [3], the Kd1 (first site, 1:2 binding model) was determined as 0.21 µM and the Kd2 (second site, 1:2 binding model) stood at 7.97 µM.

As to MMOR-Y93A (enzyme), in assay [3], the Kd1 (first site, 1:2 binding model) came out at 0.15 µM and the Kd2 (second site, 1:2 binding model) came to 17 µM.

As to `NC(=O)C1=CN([C@@H]2O[C@H](COP(=O)(O)OP(=O)(O)OC[C@H]3O[C@@H](n4cnc5c(N)ncnc54)[C@H](O)[C@@H]3O)[C@@H](O)[C@H]2O)C=CC1` [β-nicotinamide adenine dinucleotide, reduced disodium salt hydrate], the “NADH consumption at 340 nm” value in assay [4] is listed as “The activity of MMOR-Y93A was dramatically reduced”.

(Values after PMC9628860, “Electron Transfer to Hydroxylase through Component Interactions in Soluble Methane Monooxygenase” (Journal of Microbiology and Biotechnology, 2022).)
